B1: Sprouty-related, EVH1 domain-containing protein 1 (Homo sapiens), Q7Z699 (parent)
chain: MSEETATSDNDNSYARVRAVVMTRDDSSGGWLPLGGSGLSSVTVFKVPHQEENGCADFFIRGERLRDKMVVLECMLKKDLIYNKVTPTFHHWKIDDKKFGLTFQSPADARAFDRGIRRAIEDISQGCPESKNEAEGADDLQANEEDSSSSLVKDHLFQQETVVTSEPYRSSNIRPSPFEDLNARRVYMQSQANQITFGQPGLDIQSRSMEYVQRQISKECGSLKSQNRVPLKSIRHVSFQDEDEIVRINPRDILIRRYADYRHPDMWKNDLERDDADSSIQFSKPDSKKSDYLYSCGDETKLSSPKDSVVFKTQPSSLKIKKSKRRKEDGERSRCVYCQERFNHEENVRGKCQDAPDPIKRCIYQVSCMLCAESMLYHCMSDSEGDFSDPCSCDTSDDKFCLRWLALVALSFIVPCMCCYVPLRMCHRCGEACGCCGGKHKAAG

Variants of: B1
Conditions: with nf1_human NF1, P21359
Sequence of nf1_human NF1, P21359 (P21359 whole entry): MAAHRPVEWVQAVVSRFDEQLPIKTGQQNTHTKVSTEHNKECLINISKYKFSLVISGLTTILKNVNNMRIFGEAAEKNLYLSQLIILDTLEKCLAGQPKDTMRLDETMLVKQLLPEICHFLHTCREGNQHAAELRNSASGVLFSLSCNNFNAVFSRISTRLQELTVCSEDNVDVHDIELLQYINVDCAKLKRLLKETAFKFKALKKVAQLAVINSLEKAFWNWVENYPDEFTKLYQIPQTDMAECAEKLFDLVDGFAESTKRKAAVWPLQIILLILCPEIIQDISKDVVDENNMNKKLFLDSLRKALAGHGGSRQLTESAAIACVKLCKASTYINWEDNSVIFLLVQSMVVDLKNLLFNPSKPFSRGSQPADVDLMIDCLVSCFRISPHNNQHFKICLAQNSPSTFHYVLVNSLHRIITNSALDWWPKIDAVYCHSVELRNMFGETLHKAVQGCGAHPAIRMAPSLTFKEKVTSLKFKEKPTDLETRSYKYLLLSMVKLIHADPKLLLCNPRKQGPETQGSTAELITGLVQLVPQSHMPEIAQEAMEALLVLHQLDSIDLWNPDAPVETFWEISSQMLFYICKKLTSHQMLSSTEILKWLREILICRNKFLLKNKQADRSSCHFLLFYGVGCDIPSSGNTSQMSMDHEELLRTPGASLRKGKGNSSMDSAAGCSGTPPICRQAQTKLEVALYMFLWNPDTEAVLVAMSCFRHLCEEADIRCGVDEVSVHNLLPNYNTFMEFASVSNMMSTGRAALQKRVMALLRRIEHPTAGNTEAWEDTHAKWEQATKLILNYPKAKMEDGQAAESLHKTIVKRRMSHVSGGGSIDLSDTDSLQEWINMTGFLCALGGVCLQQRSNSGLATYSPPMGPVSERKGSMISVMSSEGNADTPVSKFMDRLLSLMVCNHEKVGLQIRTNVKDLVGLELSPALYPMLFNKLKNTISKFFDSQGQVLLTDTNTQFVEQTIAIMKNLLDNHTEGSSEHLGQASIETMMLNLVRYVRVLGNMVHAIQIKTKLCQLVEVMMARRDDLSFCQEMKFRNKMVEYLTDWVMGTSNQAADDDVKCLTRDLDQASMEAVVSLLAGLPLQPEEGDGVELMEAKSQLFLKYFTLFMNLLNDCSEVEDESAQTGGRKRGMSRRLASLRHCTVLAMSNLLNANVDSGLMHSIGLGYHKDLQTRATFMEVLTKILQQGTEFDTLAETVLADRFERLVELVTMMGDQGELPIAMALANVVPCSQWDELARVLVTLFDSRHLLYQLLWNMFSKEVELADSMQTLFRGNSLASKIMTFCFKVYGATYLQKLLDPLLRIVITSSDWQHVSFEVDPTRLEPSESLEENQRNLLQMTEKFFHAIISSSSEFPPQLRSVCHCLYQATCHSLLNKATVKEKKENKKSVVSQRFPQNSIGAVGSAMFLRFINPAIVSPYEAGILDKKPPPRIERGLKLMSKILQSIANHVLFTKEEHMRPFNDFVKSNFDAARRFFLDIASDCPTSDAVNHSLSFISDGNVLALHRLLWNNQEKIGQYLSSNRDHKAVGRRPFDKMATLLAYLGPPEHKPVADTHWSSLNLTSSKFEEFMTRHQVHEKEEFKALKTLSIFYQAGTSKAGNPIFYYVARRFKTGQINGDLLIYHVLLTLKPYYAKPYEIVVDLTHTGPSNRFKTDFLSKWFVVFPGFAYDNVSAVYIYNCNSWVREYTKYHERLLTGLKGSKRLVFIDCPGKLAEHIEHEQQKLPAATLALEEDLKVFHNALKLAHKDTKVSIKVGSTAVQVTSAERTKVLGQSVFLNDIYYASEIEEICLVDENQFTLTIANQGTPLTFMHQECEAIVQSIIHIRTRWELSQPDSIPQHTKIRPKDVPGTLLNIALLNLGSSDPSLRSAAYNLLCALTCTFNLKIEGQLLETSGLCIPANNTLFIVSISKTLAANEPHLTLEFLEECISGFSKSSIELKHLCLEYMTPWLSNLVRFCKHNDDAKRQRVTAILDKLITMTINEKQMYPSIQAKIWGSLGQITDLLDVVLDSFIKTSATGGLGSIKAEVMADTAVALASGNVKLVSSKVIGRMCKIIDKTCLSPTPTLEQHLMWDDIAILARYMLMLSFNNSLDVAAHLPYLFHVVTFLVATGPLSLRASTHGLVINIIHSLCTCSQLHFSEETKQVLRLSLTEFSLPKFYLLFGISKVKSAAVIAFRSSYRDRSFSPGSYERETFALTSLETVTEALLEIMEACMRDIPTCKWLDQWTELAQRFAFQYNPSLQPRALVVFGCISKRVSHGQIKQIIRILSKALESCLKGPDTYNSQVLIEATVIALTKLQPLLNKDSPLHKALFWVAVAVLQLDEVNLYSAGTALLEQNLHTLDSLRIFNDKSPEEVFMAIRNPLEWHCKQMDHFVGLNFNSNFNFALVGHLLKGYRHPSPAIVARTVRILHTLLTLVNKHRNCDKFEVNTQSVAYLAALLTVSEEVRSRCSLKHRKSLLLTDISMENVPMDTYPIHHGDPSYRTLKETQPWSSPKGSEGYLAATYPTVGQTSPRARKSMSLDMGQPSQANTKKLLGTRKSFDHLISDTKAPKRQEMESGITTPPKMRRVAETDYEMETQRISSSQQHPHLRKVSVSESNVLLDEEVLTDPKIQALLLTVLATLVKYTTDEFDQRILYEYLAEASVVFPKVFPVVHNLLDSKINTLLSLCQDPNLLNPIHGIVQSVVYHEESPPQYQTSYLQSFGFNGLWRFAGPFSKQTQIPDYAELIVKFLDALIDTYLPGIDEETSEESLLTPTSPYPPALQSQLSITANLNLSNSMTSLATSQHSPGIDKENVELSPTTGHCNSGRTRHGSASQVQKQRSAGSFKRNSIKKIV
In the case of G100D, the “effect of a mutation on the interaction” value is reported as “decreasing interaction strength”. With T102K the “effect of a mutation on the interaction” value was “disrupting interaction strength”. For T102R, the “effect of a mutation on the interaction” value was “decreasing interaction strength”. With T102M the “effect of a mutation on the interaction” value was “decreasing interaction strength”. For W92R, the “effect of a mutation on the interaction” value was “disrupting interaction strength”. In the case of T88K, the “effect of a mutation on the interaction” value is reported as “disrupting interaction strength”. For I116N, the “effect of a mutation on the interaction” value was “decreasing interaction strength”.

Variants of: B1
Conditions: with nf1_human NF1, P21359
Remark: another data set of the same source
In the case of T102R, the “effect of a mutation on the interaction” value is reported as “disrupting interaction strength”.
